Values quoted from earlier work, collected in PMC5481609.

Biological target: IL-23 p19 (Homo sapiens) (UniProt Q9NPF7)
Sequence (Q9NPF7 20-189, chain 1 of 2): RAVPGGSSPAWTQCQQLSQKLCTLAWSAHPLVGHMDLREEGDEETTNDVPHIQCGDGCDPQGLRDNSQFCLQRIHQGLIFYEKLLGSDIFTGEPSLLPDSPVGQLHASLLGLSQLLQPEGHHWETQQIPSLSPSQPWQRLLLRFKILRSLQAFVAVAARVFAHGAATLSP
Sequence (P29460 23-328, chain 2 of 2, further chain): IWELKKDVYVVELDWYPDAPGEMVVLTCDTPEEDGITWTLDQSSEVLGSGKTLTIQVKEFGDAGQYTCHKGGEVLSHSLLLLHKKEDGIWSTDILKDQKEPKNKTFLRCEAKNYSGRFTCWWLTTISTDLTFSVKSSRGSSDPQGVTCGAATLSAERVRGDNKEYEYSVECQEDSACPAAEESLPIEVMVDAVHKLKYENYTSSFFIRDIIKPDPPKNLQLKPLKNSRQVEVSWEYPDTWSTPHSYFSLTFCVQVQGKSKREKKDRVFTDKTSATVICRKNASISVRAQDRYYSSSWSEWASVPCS

## brazikumab
  Kd: 0.138 nM
